According to the supplement of paper PMC9170038:

Test system: MS2 coat protein
Assay: apparent KD of MS2 coat protein; designed switch direction (-1 OFF switch, 1 ON switch): 1; higher = weaker reporter binding
Outline: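 The reported apparent KD is a per-design median over clusters, from curve fits of normalised cluster fluorescence. Protein titrations used SNAP-549-labelled MS2 coat protein, doubled from 0.7 or 1.5 nM to 3 µM, in Tris-HCl pH 7.5 buffer with KCl, MgCl2, BSA, DTT, tRNA and Tween-20, with no input, 200 uM small-molecule ligand, or an oligonucleotide input. The RNA switches were transcribed on Illumina chips by stalled E. coli RNA polymerase.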

[1] = input ligand: microRNA oligo, concentration not stated
[2] = Eterna round: R95, input ligand: FMN 200 uM
[3] = Eterna round: R95, input ligand: microRNA oligo, concentration not stated
[4] = Eterna round: R95, input ligand: none

| Sequence | apparent KD of MS2 coat protein [1] | apparent KD of MS2 coat protein [2] | apparent KD of MS2 coat protein [3] | apparent KD of MS2 coat protein [4] | apparent KD of MS2 coat protein (input ligand: FMN 200 uM) | apparent KD of MS2 coat protein (input ligand: none) |
| --- | --- | --- | --- | --- | --- | --- |
| GAGUGGAGGAGAGGAUAUACAAUGAUAAUCACUGUAGAAGGUUCUAACAUGAGGAUCACCCAUGUAGGACUAUUCCUGAGAGUU [Parity 51 - Jieux - Same State NG 1] (Eterna round: R96, puzzle: Same State NG 1) | 9.46 nM | – | – | – | – | – |
| GUAAAACAUGAGGAUCACCCAUGUAAUAUAAUGGGAGGAUAUCUGAUUUAAUUAAAUUUAAGAGAAGGCCUAAAUG [Mat - Same State 1 - Mod of Eli - D56] (puzzle: Same State 1) | – | 32.1 nM | 107 nM | 123 nM | – | – |
| GGUCCAGCCUGAGCUGGACGAAAGUAUGUACAUGAGGAUCACCCAUGUCAUGUAUAAGUUUUUUGUUCGUCUUGAAA [Sensorship 1 - Jieux - Sensor for hsa-mir-208a] (puzzle: Sensor for hsa-mir-208a) | – | 26 nM | 14.2 nM | 23.1 nM | – | – |
| GUGGUCAGACAUGAGGAUCACCCAUGUGGAAUAAAUAAGGGUCAGGAUAUGAAAUAUAGGAUAUAUCAGAAGGGAUGGUUGGUG (Eterna round: R96, puzzle: Same State NG 3) | 81.1 nM | – | – | – | 101 nM | 90.5 nM |
| GUACAGAUUAUAGGAUAUCACGUCGUUUAGACGUGAGAAGGAUAAUCCCACAUGAAUAUUAAUACAUGAGGAUCACCCAUGUAC [SSNG1/18-B3] (Eterna round: R96, puzzle: Same State NG 1) | 27.7 nM | – | – | – | 21.8 nM | 30.7 nM |
| AGCUAGUACCGAGGAUAUACAUACAUGAGGAUCACCCAUGUAUACAUGAAUUAUUGAGACUACAUGUAGAAGGCGGUACUAGCA [JL SSNG2 1.20] (Eterna round: R96, puzzle: Same State NG 2) | 35.7 nM | – | – | – | 16.6 nM | 64.9 nM |
| AUUUUUAGUGCAGGAUAUGAUUAACAUGAGGAUCACCCAUGUGGUGUUGUGAGUAAGGAGAGUGAUCAGAAGGGCAUUUUUUUU [JMF's solution 92] (Eterna round: R96, puzzle: Same State NG 2) | 452 nM | – | – | – | 1020 nM | 456 nM |
| AACAUGUGGUGUCACAUGAGGAUCACCCAUGUGGUAAAACCUGAGGAUAUAAAGAAAAAAAUCAAUUAGAAGGUAGGAUCACAA [AK SSNG3-V2-18.1] (Eterna round: R96, puzzle: Same State NG 3) | 26.2 nM | – | – | – | 16.4 nM | 32.5 nM |
| AGGUAACAUGAGGAUCACCCAUGUAAGGUGAACGUAGGAUAUCGAGGAGGUAGAGUAGGUCGAGAAGGACGAGAAG [JR_SS1_Sub094] (puzzle: Same State 1) | – | 139 nM | 100 nM | 127 nM | – | – |
| UGUCCAGCCUGUGCUGGUCUUUUGCAUGUACAUGAGGAUCACCCAUGUCGUGUACAUGCUUUUUGCUCGUCUUUAAA [Photon Torp-04] (puzzle: Sensor for hsa-mir-208a) | – | 181 nM | 25.4 nM | 317 nM | – | – |
| UGGCUCAGACGAGGAUAUAUGUCUCGAGCUUCGGCUCGAGACAUGAGGAUCACCCAUGUAAUAACAUAGAAGGCGUCUGAGCCU [SSNG2/1-A3] (Eterna round: R96, puzzle: Same State NG 2) | 29 nM | – | – | – | 12.6 nM | 34.3 nM |
| AGCUAUCGAAAACGAUAGCAAAAGCAUGUACAUGAGGAUCACCCAUGUUAUGUACAAGCUUUUUGCUCGUCUUAAAA [Zipper 23 - 11] (puzzle: Sensor for hsa-mir-208a) | – | 326 nM | 12 nM | 308 nM | – | – |
| GCGGAAACUCACAUGAGGAUCACCCAUGUUCCGGAAACGGCACAGGAUAUCUGUCCGAAAAGGUCAGAGAAGGGUGUAAUCCGC [Fiskers NG3ss - 90] (Eterna round: R96, puzzle: Same State NG 3) | 101 nM | – | – | – | 572 nM | 79.6 nM |
| AAGUUACUAUCUCAGGAUAUCAUGUCAAAGACAUGAGGAUCACCCAUGUACCAGGAAACUGGUUAUGAGAAGGGAGAUAGUAACA [Mat - Same State 2 - Mod - D50] (puzzle: Same State 2) | – | 143 nM | 134 nM | 1400 nM | – | – |
| AUAAGGCAAGCUUUUUUCUCGUAGUAUAAACAUGAGGAUCACCCAUGUGCCCACCCUGGAUCUUUGGAUCGCAGAAC [Vetera] (puzzle: Sensor for hsa-mir-208a) | – | 26.8 nM | 16.5 nM | 26.3 nM | – | – |
| CAGCACUGUCGAGAGGAUAUGCGGUGAUAGACAUGAGGAUCACCCAUGUUAGCGACAGCAUCACGGCAGAAGGCUCUGCUGCUGC [Soteed Omei mod 40] (puzzle: Same State 2) | – | 43.5 nM | 130 nM | 349 nM | – | – |
| CGUCCAGCCUGAGCUGGACAAAAGCAUGUACAUGAGGAUCACCCAUGUUCAUGUACAAGCUUUUUGCUCGUCUUAUG [salish99_208a_r3_054] (puzzle: Sensor for hsa-mir-208a) | – | 662 nM | 17.9 nM | 1110 nM | – | – |
| GGAGCCGGUACUGAGGAUAUUCAUAUUAAAACAUGAGGAUCACCCAUGUAGGCCAGAAGGCCUUGGGAGAAGGCGGACCAGCUCG [Atgexeedri - 1] (puzzle: Same State 2) | – | 18.8 nM | 283 nM | 414 nM | – | – |
| GGUCCAGCCUGAGCUGGACAAAAGCGUGUACAUGAGGAUCACCCAUGUCAUGUACAAGCUUUUUGCUCGUCUUAAAA [JL mod - D87 - 6] (puzzle: Sensor for hsa-mir-208a) | – | 80.2 nM | 18.8 nM | 94.9 nM | – | – |
| GAGUGGAGGAAAGGAUAUACAAUGAUAAUCACAGUAGAAGGUUCUAACAUGAGGAUCACCCAUGUAGGACUAUACCUGAGAGAA [Parity 47 - Jieux - Same State NG 1] (Eterna round: R96, puzzle: Same State NG 1) | 10.8 nM | – | – | – | 9.26 nM | 15.5 nM |
| CGGUGUGAGAAAGGAUAUGUUCGCUAGUCGCGAGCAGAAGGUUCUGCGCGCUGCUAUACGAACAUGAGGAUCACCCAUGUAAAA [Laqu] (Eterna round: R96, puzzle: Same State NG 1) | 11.8 nM | – | – | – | 130 nM | 69.2 nM |
| ACAUGAGACAUAGGAUAUGUUGUACCUACAUGUGACAUGAGGAUCACCCAUGUGGUAAGUAUGAGGCAGAAGGAUGAGAUAUGU [Equivalence 40 - Jieux - Same State NG 2] (Eterna round: R96, puzzle: Same State NG 2) | 37 nM | – | – | – | 50.3 nM | 74.1 nM |
| UGUCCAGCCUGAGCUGGACAAAAGCAUGUACAUGAGGAUCACCCAUGUUCAUGUACAAGCUUUUUGCUCGUCUUACU [salish99_208a_r3_081] (Eterna round: R96, puzzle: Sensor for hsa-mir-208a) | 12.9 nM | – | – | – | 534 nM | 400 nM |
